Biological target: HLA-A2 (on T2 cells) (human)
Assay: T2 cell binding assay, fluorescence index by flow cytometry

Binder	T2 Binding (FI)
LATEKSRWSG (Synthetic 10-mer) [Unmodified 2 (human BRAFV600E peptide LATEKSRWSG, amino acids 597-606 of BRAFV600E)]	1.1 FI = (MFI peptide/MFI w/o peptide) - 1
LATEKSRWSI (Synthetic 10-mer) [Modified 5 (modified BRAFV600E peptide LATEKSRWSI)]	0.7 FI = (MFI peptide/MFI w/o peptide) - 1
LMTEKSRWSG (Synthetic 10-mer) [Modified 2 (modified BRAFV600E peptide LMTEKSRWSG)]	0.8 FI = (MFI peptide/MFI w/o peptide) - 1
LATEKSRWSV (Synthetic 10-mer) [Modified 7 (modified BRAFV600E peptide LATEKSRWSV)]	1 FI = (MFI peptide/MFI w/o peptide) - 1
LLTEKSRWSG (Synthetic 10-mer) [Modified 3 (modified BRAFV600E peptide LLTEKSRWSG)]	0.9 FI = (MFI peptide/MFI w/o peptide) - 1
LLTEKSRWSV (Synthetic 10-mer) [Modified 4 (modified BRAFV600E peptide LLTEKSRWSV)]	6.5 FI = (MFI peptide/MFI w/o peptide) - 1
LATEKSRWSL (Synthetic 10-mer) [Modified 6 (modified BRAFV600E peptide LATEKSRWSL)]	0.6 FI = (MFI peptide/MFI w/o peptide) - 1
LITEKSRWSG (Synthetic 10-mer) [Modified 1 (modified BRAFV600E peptide LITEKSRWSG)]	1 FI = (MFI peptide/MFI w/o peptide) - 1
